Experimental findings from patent US20240239894A1 (AstraZeneca / MedImmune, published 2024) are described below.

Assay [1] addresses T1, Human B7H4 (ECD) Fc TM 6H (human, UniProt Q7Z7D3).
T1 construct: ECD, native leader
T1 sequence (Q7Z7D3 whole entry, looked up): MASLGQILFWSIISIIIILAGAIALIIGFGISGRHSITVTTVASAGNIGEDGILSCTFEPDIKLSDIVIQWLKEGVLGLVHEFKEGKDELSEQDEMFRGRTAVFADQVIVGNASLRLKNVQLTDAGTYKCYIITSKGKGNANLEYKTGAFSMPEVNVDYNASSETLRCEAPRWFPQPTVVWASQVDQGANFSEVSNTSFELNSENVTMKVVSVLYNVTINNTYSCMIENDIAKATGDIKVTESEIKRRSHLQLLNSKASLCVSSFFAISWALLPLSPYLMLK
The experiment in a line: ELISA, absorbance 450 nm, Human B7H4 (ECD) Fc TM 6H; x axis printed as antigen concentration (nM). (In an ELISA, binding on a coated surface is turned into a signal by an enzyme label.)

In assay [2] the target is T2, Cyno B7-H4-Fc (Cyno B7H4 ECD, FcTM_6His) (cynomolgus monkey).
T2 construct: extracellular domain; also called cynomolgus B7-H4-Fc
The assay can be described thus: ELISA, absorbance 450 nm, Cyno B7H4 (ECD) Fc TM 6H; x axis printed as antigen concentration (nM).

The target in another assay is T3, huBTN1A1 (human, UniProt Q13410 27-242, limits assumed).
T3 construct: Sourced antigen; construct not described; also called Human BTN1A1
T3 sequence (looked up): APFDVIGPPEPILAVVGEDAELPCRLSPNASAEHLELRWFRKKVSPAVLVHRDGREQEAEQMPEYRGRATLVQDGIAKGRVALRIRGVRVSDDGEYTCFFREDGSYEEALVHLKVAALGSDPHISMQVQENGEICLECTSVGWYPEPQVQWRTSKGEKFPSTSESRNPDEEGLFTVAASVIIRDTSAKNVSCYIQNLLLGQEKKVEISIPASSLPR
The assay can be described thus: ELISA, absorbance 450 nm, antigen human BTN1A1 GST.

A further assay has as its target T4, huB7-H1 (human, UniProt Q9NZQ7 19-238).
T4 construct: Sourced antigen; construct not described; also called Human B7-H1
The assay can be described thus: ELISA, absorbance 450 nm, antigen human B7-H1(ECD) F10H.

Assay [3] addresses T5, Human B7-H4-Fc (Human B7H4 ECD, Fc_6His) (human).
T5 construct: also called FcHis6 tagged human B7-H4
T5 sequence (Q7Z7D3 whole entry, looked up): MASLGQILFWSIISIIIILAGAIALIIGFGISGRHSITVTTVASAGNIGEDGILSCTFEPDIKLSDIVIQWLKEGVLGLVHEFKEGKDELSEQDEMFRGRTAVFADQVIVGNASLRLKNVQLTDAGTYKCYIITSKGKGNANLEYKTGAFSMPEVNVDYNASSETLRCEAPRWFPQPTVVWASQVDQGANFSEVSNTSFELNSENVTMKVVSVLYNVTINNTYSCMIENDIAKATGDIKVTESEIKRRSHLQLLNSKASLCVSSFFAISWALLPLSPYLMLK
The experiment in a line: ELISA, absorbance 450 nm; x axis of this panel printed as Antibody Conc (µg/ml).

Assay [4] deals with T6, Human B7-H4 ECD-Flag-His10 (monomeric) (human, UniProt Q7Z7D3 25-259).
T6 construct: Minimally biotinylated for KinExA; also called hB7H4-ECD-Flag-His10; B7-H4-FLAG
T6 sequence: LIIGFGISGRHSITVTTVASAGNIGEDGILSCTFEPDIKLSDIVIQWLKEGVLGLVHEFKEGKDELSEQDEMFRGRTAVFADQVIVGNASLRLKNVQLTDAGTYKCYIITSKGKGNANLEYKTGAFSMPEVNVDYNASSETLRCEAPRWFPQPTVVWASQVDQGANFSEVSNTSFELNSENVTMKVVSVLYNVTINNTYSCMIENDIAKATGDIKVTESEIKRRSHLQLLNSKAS
The description is as above.

Assay [5] concerns the target T7, Murine B7-H4-Fc (Mouse B7H4 ECD, Fc_6His) (mouse, UniProt Q7TSP5 25-257).
T7 construct: extracellular domain; also called mouse B7-H4-Fc; FcHis6 tagged murine B7-H4
T7 sequence (Q7TSP5 whole entry, looked up): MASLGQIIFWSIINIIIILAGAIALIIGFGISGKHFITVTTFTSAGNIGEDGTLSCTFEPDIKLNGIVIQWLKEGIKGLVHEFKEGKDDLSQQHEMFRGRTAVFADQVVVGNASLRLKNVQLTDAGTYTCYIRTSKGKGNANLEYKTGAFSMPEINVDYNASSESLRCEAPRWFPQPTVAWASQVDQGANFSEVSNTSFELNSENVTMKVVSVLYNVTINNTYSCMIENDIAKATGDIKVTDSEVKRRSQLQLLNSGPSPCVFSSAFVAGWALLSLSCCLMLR
The experiment in a line: HTRF binding, murine IgG1. (In general: In TR-FRET formats the signal depends on donor and acceptor labels being close together.)

Another assay has as its target T8, huBTNL3 (human, UniProt Q6UXE8 18-237, limits assumed).
T8 construct: Sourced antigen; construct not described; also called Human BTNL3
T8 sequence (looked up): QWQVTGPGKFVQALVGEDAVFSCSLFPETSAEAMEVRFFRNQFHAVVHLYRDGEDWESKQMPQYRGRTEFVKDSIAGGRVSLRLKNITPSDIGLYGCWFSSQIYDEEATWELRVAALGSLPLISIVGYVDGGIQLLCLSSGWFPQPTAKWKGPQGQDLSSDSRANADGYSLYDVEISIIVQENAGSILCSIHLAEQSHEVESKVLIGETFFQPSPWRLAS
The experiment in a line: ELISA.

The target of another assay is T9, huBTN2A1 (human, UniProt Q7KYR7 29-248, limits assumed).
T9 construct: Sourced antigen; construct not described; also called Human BTN2A1
T9 sequence (looked up): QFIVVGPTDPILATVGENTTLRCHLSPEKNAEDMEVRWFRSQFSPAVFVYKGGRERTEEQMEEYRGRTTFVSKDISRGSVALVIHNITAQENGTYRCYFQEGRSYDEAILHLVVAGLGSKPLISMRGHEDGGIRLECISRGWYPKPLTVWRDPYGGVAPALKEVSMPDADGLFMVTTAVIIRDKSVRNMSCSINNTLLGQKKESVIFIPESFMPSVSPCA
The experiment in a line: ELISA.

In assay [6] the target is T2, Cyno B7-H4-Fc (Cyno B7H4 ECD, FcTM_6His). The assay can be described thus: HTRF binding, murine IgG1.
For the next assay, the target named is T10, huHHLA2 (human, UniProt Q9UM44 23-344).
T10 construct: Sourced antigen; construct not described; also called Human HHLA2
T10 sequence (looked up): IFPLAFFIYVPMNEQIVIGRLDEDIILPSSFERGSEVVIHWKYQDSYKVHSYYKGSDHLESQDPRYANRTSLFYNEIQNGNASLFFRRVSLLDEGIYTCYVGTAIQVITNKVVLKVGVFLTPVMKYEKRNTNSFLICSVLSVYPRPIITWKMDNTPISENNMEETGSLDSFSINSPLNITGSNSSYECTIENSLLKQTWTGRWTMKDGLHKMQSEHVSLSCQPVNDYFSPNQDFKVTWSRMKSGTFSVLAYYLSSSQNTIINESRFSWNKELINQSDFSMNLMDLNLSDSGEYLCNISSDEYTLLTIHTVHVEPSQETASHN
The assay can be described thus: ELISA, absorbance 450 nm, antigen human HHLA2 GST.

A further assay deals with T11, huB7-H3 (human, UniProt Q5ZPR3 29-461, limits assumed).
T11 construct: Sourced antigen; construct not described; also called Human B7-H3
T11 sequence (looked up): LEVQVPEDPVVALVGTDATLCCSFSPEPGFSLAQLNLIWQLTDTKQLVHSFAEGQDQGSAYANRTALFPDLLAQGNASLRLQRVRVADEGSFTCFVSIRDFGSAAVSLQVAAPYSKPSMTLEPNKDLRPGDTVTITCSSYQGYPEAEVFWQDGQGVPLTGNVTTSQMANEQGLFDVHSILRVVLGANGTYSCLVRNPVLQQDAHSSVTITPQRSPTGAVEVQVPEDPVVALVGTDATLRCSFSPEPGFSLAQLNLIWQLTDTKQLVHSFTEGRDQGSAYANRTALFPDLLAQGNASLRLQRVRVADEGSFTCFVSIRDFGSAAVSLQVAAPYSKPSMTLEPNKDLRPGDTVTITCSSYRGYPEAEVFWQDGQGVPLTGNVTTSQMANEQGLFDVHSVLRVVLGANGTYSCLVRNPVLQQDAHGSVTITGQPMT
The assay can be described thus: ELISA, absorbance 450 nm, antigen human B7-H3 (ECD) Fc.

The target in a further assay is T12, huB7-H2 (human, UniProt O75144 19-258).
T12 construct: Sourced antigen; construct not described; also called Human B7-H2
T12 sequence (looked up): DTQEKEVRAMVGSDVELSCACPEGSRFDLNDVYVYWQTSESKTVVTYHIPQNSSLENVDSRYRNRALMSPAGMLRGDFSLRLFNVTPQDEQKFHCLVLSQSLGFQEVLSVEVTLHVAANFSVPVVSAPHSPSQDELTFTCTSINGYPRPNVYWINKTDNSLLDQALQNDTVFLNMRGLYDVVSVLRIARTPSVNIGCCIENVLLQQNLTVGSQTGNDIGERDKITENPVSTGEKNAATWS
The experiment in a line: ELISA, absorbance 450 nm, antigen human B7-H2 (ECD) F10H.

For another assay, the target named is T13, huBTN3A2 (human, UniProt P78410 30-248, limits assumed).
T13 construct: Sourced antigen; construct not described; also called Human BTN3A2
T13 sequence (P78410 30-248 limits assumed): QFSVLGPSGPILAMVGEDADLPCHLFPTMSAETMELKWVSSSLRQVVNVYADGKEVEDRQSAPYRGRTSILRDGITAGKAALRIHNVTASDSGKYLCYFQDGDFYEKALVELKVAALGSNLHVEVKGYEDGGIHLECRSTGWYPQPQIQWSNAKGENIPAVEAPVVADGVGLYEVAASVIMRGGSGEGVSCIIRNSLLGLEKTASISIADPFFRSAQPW
The assay can be described thus: ELISA, absorbance 450 nm, antigen human BTN3A2 GST.

For assay [7], the target named is T5, Human B7-H4-Fc (Human B7H4 ECD, Fc_6His). The experiment in a line: HTRF binding, murine IgG1.
For assay [8] the target is unchanged. The experiment in a line: ELISA, absorbance 450 nm; x axis printed as antigen concentration (µg/ml).
Assay [9] concerns the target T6, Human B7-H4 ECD-Flag-His10 (monomeric). Described as above.

T4 sequence (Q9NZQ7 19-238 limits assumed): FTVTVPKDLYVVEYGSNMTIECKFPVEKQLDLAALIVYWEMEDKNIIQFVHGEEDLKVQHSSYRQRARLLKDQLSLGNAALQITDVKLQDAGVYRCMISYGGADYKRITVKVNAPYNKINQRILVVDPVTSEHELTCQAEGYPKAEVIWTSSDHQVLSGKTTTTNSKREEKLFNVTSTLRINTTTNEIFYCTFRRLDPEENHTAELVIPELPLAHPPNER

B1: E02-GL-maia (antibody, human IgG1, kappa)
heavy: QVQLQQWGAGLLKPSETLSLACTVYGGSFSGYYWNWIRQPPGKGLEWIGEINHSGSTSYNPSLKSRVTISVDTSKNQFSLKLSSVTAADTAVYYCARVLYNWNVDSWGQGTLVTVSSASTKGPSVFPLAPSSKSTSGGTAALGCLVKDYFPEPVTVSWNSGALTSGVHTFPAVLQSSGLYSLSSVVTVPSSSLGTQTYICNVNHKPSNTKVDKRVEPKSCDKTHTCPPCPAPELLGGPSCVFLFPPKPKDTLMISRTPEVTCVVVDVSHEDPEVKFNWYVDGVEVHNAKTKPREEQYNSTYRVVSVLTVLHQDWLNGKEYKCKVSNKALPAPIEKTISKAKGQPREPQVYTLPPSREEMTKNQVSLTCLVKGFYPSDIAVEWESNGQPENNYKTTPPVLDSDGSFFLYSKLTVDKSRWQQGNVFSCSVMHEALHNHYTQKSLSLSPGK
light: DIQMTQSPSSLSASVGDRVTITCRASQDIRNDVGWYQQKPGKAPKRLIYAASRLQSGVPSRFSGSGSGTEFTLTISSLQPEDFATYYCLQHNSYPRTFGQGTKVEIKRTVAAPSVFIFPPSDEQLKSGTASVVCLLNNFYPREAKVQWKVDNALQSGNSQESVTEQDSKDSTYSLSSTLTLSKADYEKHKVYACEVTHQGLSSPVTKSFNRGEC
notes: Maia format: cysteine insertion in the IgG1 constant region; also called germlined (GL) Maia format mAb
For B1, the “EC50 (read off the curve)” value in [1] and in [2] was approximately 10 nM each time.

B2: ZY0EPQ-E02 murine IgG1 (antibody, V domains shown)
VH: QVQLQQWGAGLLKPSETLSLTCAVYGGSFSGYYWNWIRQPPGKGLEWIGEINHSGSTNYNPSLKSRVTILVDTSKNQFSLKLSSVTAADTAVYYCARNLYNWNLDSWGQGTLVTVSS
VL: DIQMTQSPSSLSASVGDRVTITCRASQGIRNDLGWYQQKPGRAPKRLIYVASSLQSGVPSRFSGSGSGTEFTLTISSLQPEDFATYYCLQHNSYPRTFGQGTKVEIK
For the molecule B2, the binding result is given as “no binding (tested: 10 µg/ml (antigen))” with huBTN1A1; “no binding (tested: 10 µg/ml (antigen))” in the assay with huB7-H1; “no binding” with huBTNL3; “no binding” with huBTN2A1; “no binding (tested: about 10 µg/ml (antigen))” in the assay with huHHLA2; “no binding” in the assay with huB7-H3. For the same molecule, the figures for the binding result with huB7-H2 and in the assay with huBTN3A2 were “no binding (tested: 10 µg/ml (antigen))” and “no binding (tested: about 10 µg/ml (antigen))”, respectively. Besides, the “EC50 (read off the curve)” value in [3] and in assay [4] was approximately 0.2 µg/mL each time. For the same molecule, the EC50 – broadly, the concentration that produces a half-maximal response – in assay [5] amounted to 2.03 nM; in [6] it was 0.38 nM; in [7] it was 0.38 nM. Besides, the Max in assay [5] was found to be 790; in assay [6], 2240; in assay [7], 2740.

B3: ZY0EQD-E02 murine IgG1 (antibody, V domains shown)
VH: QVQLQQWGAGLLKPSETLSLTCAVYGGSFSGYYWNWIRQPPGKGLEWIGEINHSGSTSYNPSLKSRVTISVDTSKNQFSLKLSSVTAADTAVYYCARVLYNWNVDSWGQGTLVTVSS
VL: DIQMTQSPSSLSASVGDRVTITCRASQDIRNDVGWYQQKPGKAPKRLIYAASRLQSGVPSRFSGSGSGTEFTLTISSLQPEDFATYYCLQHNSYPRTFGQGTKVEIK
B3: the binding result in the assay with huBTN1A1 is recorded as “no binding (tested: 10 µg/ml (antigen))”; in the assay with huB7-H1, “no binding (tested: 10 µg/ml (antigen))”; in the assay with huBTNL3, “no binding”; with huBTN2A1 it was “no binding”; with huHHLA2 it was “no binding (tested: about 10 µg/ml (antigen))”; with huB7-H3 it was “no binding”. Moreover, the results for the binding result with huB7-H2 and with huBTN3A2 were “no binding (tested: 10 µg/ml (antigen))” and “no binding (tested: about 10 µg/ml (antigen))”, respectively. In addition, the concentration giving a half-maximal response (EC50) in assay [5] amounted to 3.64 nM; in [6], 0.22 nM; in [7], 0.22 nM. Besides, the figures for the Max in [5], in [6] and in assay [7] were 447, 2490 and 3170, respectively. Besides, the EC50 (read off the curve) – broadly, the concentration giving half of the maximal effect – was approximately 0.03 µg/mL in assay [8] and approximately 0.04 µg/mL in assay [9].
